Experimental data as given in the supplement of paper PMC9112550, “Optimization of the antimicrobial peptide Bac7 by deep mutational scanning” (BMC Biology, 2022).

tested on: Escherichia coli TOP10; assay: shrunken log2 fold change of peptide-encoding DNA abundance (4.5 h post-induction vs induction); higher = less antimicrobial activity (less host growth inhibition); conditions: time post-induction: 4.5 h; library: site-saturation at positions 5, 18, 19, 20
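Also: peptides expressed intracellularly from a pBAD plasmid library in pooled LB shake-flask culture, induced with 0.3% L-arabinose, DNA abundance read by NGS, three biological replicates, DESeq2 with apeglm shrinkage.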

Row | Sequence | shrunken log2 fold change
1 | RRIRWRPPRLPRPRPRPVAFPRP | 0.313
2 | RRIRGRPPRLPRPRPRPGSPPRP | 0.469
3 | RRIRWRPPRLPRPRPRPLWHPRP | -0.0484
4 | RRIRSRPPRLPRPRPRPCLMPRP | -0.135
5 | RRIRCRPPRLPRPRPRPDLGPRP | 0.43
6 | RRIRMRPPRLPRPRPRPCWLPRP | -0.0281
7 | RRIRGRPPRLPRPRPRPHYAPRP | -0.0664
8 | RRIRLRPPRLPRPRPRPRHAPRP | 0.537
9 | RRIRIRPPRLPRPRPRPHSNPRP | -0.502
10 | RRIRQRPPRLPRPRPRPFMIPRP | 0.0993
11 | RRIRCRPPRLPRPRPRPNCLPRP | -0.19
12 | RRIRCRPPRLPRPRPRPTFEPRP | -0.279
13 | RRIRPRPPRLPRPRPRPYHGPRP | 0.0397
14 | RRIRVRPPRLPRPRPRPQGGPRP | -0.0824
15 | RRIRCRPPRLPRPRPRPIWDPRP | 0.166
16 | RRIRERPPRLPRPRPRPRTCPRP | -0.0174
17 | RRIRNRPPRLPRPRPRPNSEPRP | -0.258
18 | RRIRQRPPRLPRPRPRPNICPRP | 0.0129
19 | RRIRYRPPRLPRPRPRPVQVPRP | 0.0039
20 | RRIRCRPPRLPRPRPRPGMQPRP | -0.255
21 | RRIRNRPPRLPRPRPRPVEAPRP | 0.277
22 | RRIRVRPPRLPRPRPRPMMQPRP | 0.0134
23 | RRIRIRPPRLPRPRPRPSDDPRP | -0.191
24 | RRIRWRPPRLPRPRPRPKVLPRP | 0.155
25 | RRIRDRPPRLPRPRPRPIARPRP | 0.199

Row | Sequence | shrunken log2 fold change
26 | RRIRSRPPRLPRPRPRPVIRPRP | -0.213
27 | RRIRNRPPRLPRPRPRPYSNPRP | -0.155
28 | RRIRLRPPRLPRPRPRPFWKPRP | 0.379
29 | RRIRVRPPRLPRPRPRPKPNPRP | 0.275
30 | RRIRCRPPRLPRPRPRPGEDPRP | -0.0369
31 | RRIRIRPPRLPRPRPRPFNAPRP | -0.551
32 | RRIRSRPPRLPRPRPRPRDPPRP | 0.623
33 | RRIRDRPPRLPRPRPRPPYNPRP | -0.395
34 | RRIRCRPPRLPRPRPRPPKHPRP | 0.203
35 | RRIRFRPPRLPRPRPRPMQEPRP | 0.0233
36 | RRIRQRPPRLPRPRPRPFRYPRP | -0.245
37 | RRIRMRPPRLPRPRPRPKTVPRP | 0.847
38 | RRIRVRPPRLPRPRPRPMFTPRP | -0.0798
39 | RRIRSRPPRLPRPRPRPMQIPRP | 0.141
40 | RRIRARPPRLPRPRPRPVCEPRP | 0.836
41 | RRIRVRPPRLPRPRPRPVDSPRP | 0.0147
42 | RRIRPRPPRLPRPRPRPLDQPRP | 0.0885
43 | RRIRNRPPRLPRPRPRPVYWPRP | 0.0175
44 | RRIRLRPPRLPRPRPRPDADPRP | 1.25
45 | RRIRFRPPRLPRPRPRPECEPRP | 0.639
46 | RRIRTRPPRLPRPRPRPHHSPRP | -0.133
47 | RRIRQRPPRLPRPRPRPREYPRP | -0.0403
48 | RRIRPRPPRLPRPRPRPISCPRP | -0.0606
49 | RRIRHRPPRLPRPRPRPGAPPRP | 0.384
50 | RRIRCRPPRLPRPRPRPRFPPRP | -0.0867

Row | Sequence | shrunken log2 fold change
51 | RRIRERPPRLPRPRPRPFNYPRP | -0.273
52 | RRIRNRPPRLPRPRPRPTRCPRP | 0.15
53 | RRIRQRPPRLPRPRPRPAYEPRP | -0.00926
54 | RRIRQRPPRLPRPRPRPVGVPRP | 0.475
55 | RRIRSRPPRLPRPRPRPWAIPRP | -0.191
56 | RRIRERPPRLPRPRPRPGTYPRP | -0.478
57 | RRIRPRPPRLPRPRPRPYAQPRP | -0.478
58 | RRIRFRPPRLPRPRPRPPMNPRP | -0.0762
59 | RRIRDRPPRLPRPRPRPRYYPRP | -0.175
60 | RRIRQRPPRLPRPRPRPVTFPRP | -0.0496
61 | RRIRWRPPRLPRPRPRPMFNPRP | -0.156
62 | RRIRNRPPRLPRPRPRPFVGPRP | -0.182
63 | RRIRNRPPRLPRPRPRPETCPRP | 0.262
64 | RRIRNRPPRLPRPRPRPDVCPRP | -0.00695
65 | RRIRDRPPRLPRPRPRPLVTPRP | 0.486
66 | RRIRMRPPRLPRPRPRPRGLPRP | 0.727
67 | RRIRMRPPRLPRPRPRPRSVPRP | 0.871
68 | RRIRMRPPRLPRPRPRPGEPPRP | 0.163
69 | RRIRARPPRLPRPRPRPQWMPRP | 0.0371
70 | RRIRDRPPRLPRPRPRPFAPPRP | 0.318
71 | RRIRCRPPRLPRPRPRPELVPRP | 0.423
72 | RRIRERPPRLPRPRPRPDRVPRP | 0.00251
73 | RRIRPRPPRLPRPRPRPSDEPRP | -0.244
74 | RRIRVRPPRLPRPRPRPAVCPRP | 0.258
75 | RRIRQRPPRLPRPRPRPSKPPRP | -0.231

Row | Sequence | shrunken log2 fold change
76 | RRIRDRPPRLPRPRPRPCMNPRP | 0.119
77 | RRIRCRPPRLPRPRPRPIHPPRP | 0.00281
78 | RRIRWRPPRLPRPRPRPTRIPRP | 1.97
79 | RRIRKRPPRLPRPRPRPPQDPRP | 0.636
80 | RRIRKRPPRLPRPRPRPCDIPRP | -0.0579
81 | RRIRKRPPRLPRPRPRPWSQPRP | -0.0225
82 | RRIRQRPPRLPRPRPRPYNKPRP | -0.403
83 | RRIRERPPRLPRPRPRPQSQPRP | 0.0662
84 | RRIRCRPPRLPRPRPRPPTRPRP | 0.645
85 | RRIRTRPPRLPRPRPRPNCPPRP | -0.0894
86 | RRIRERPPRLPRPRPRPVLAPRP | 0.252
87 | RRIRTRPPRLPRPRPRPNHLPRP | -0.15
88 | RRIRHRPPRLPRPRPRPVLTPRP | -0.107
89 | RRIRRRPPRLPRPRPRPWRFPRP | 0.012
90 | RRIRIRPPRLPRPRPRPMYAPRP | -0.191
91 | RRIRRRPPRLPRPRPRPLTQPRP | 0.342
92 | RRIRYRPPRLPRPRPRPHFIPRP | -0.214
93 | RRIRERPPRLPRPRPRPSLDPRP | -0.35
94 | RRIRKRPPRLPRPRPRPPFSPRP | -0.227
95 | RRIRNRPPRLPRPRPRPAPGPRP | 0.164
96 | RRIRHRPPRLPRPRPRPGPEPRP | 1.6
97 | RRIRHRPPRLPRPRPRPHHPPRP | 0.0301
98 | RRIRHRPPRLPRPRPRPRLDPRP | -0.0149
99 | RRIRKRPPRLPRPRPRPDLPPRP | 0.222
100 | RRIRKRPPRLPRPRPRPLFFPRP | 0.147

Row | Sequence | shrunken log2 fold change
101 | RRIRNRPPRLPRPRPRPNDSPRP | -0.235
102 | RRIRYRPPRLPRPRPRPQNDPRP | -1.63
103 | RRIRCRPPRLPRPRPRPAMAPRP | 0.199
104 | RRIRLRPPRLPRPRPRPLLQPRP | 0.138
105 | RRIRQRPPRLPRPRPRPSSNPRP | -0.222
106 | RRIRNRPPRLPRPRPRPCNTPRP | -0.442
107 | RRIRWRPPRLPRPRPRPEHRPRP | 0.231
108 | RRIRWRPPRLPRPRPRPKDNPRP | -0.00672
109 | RRIRPRPPRLPRPRPRPTIKPRP | -0.313
110 | RRIRQRPPRLPRPRPRPHAAPRP | 0.465
111 | RRIRDRPPRLPRPRPRPHPEPRP | 0.004
112 | RRIRSRPPRLPRPRPRPWLKPRP | 0.0524
113 | RRIRRRPPRLPRPRPRPYRCPRP | -1.3
114 | RRIRARPPRLPRPRPRPLLSPRP | 0.367
115 | RRIRDRPPRLPRPRPRPYQDPRP | -0.00141
116 | RRIRARPPRLPRPRPRPDVRPRP | 0.0106
117 | RRIRVRPPRLPRPRPRPLFHPRP | -0.311
118 | RRIRRRPPRLPRPRPRPYLWPRP | -0.439
119 | RRIRVRPPRLPRPRPRPIHMPRP | -0.0179
120 | RRIRNRPPRLPRPRPRPGEIPRP | 0.627
121 | RRIRYRPPRLPRPRPRPSHTPRP | -1.39
122 | RRIRNRPPRLPRPRPRPNCFPRP | 0.0424
123 | RRIRIRPPRLPRPRPRPYTGPRP | -0.177
124 | RRIRERPPRLPRPRPRPQYKPRP | -0.675
125 | RRIRCRPPRLPRPRPRPPEFPRP | 0.0967

Row | Sequence | shrunken log2 fold change
126 | RRIRQRPPRLPRPRPRPGGDPRP | 0.0869
127 | RRIRFRPPRLPRPRPRPNHMPRP | -0.567
128 | RRIRVRPPRLPRPRPRPGDDPRP | 0.364
129 | RRIRHRPPRLPRPRPRPNARPRP | -0.0163
130 | RRIRRRPPRLPRPRPRPKQPPRP | 0.0672
131 | RRIRLRPPRLPRPRPRPHETPRP | -0.236
132 | RRIRWRPPRLPRPRPRPVGPPRP | 0.281
133 | RRIRSRPPRLPRPRPRPCNMPRP | -0.221
134 | RRIRTRPPRLPRPRPRPNIQPRP | -0.586
135 | RRIRYRPPRLPRPRPRPRHKPRP | -0.208
136 | RRIRSRPPRLPRPRPRPEGHPRP | 0.0136
137 | RRIRNRPPRLPRPRPRPILSPRP | -0.00144
138 | RRIRMRPPRLPRPRPRPKFMPRP | 0.0431
139 | RRIRCRPPRLPRPRPRPVNDPRP | -0.186
140 | RRIRMRPPRLPRPRPRPGDNPRP | -0.00193
141 | RRIRMRPPRLPRPRPRPLVLPRP | 0.141
142 | RRIRIRPPRLPRPRPRPFVKPRP | -0.691
143 | RRIRMRPPRLPRPRPRPIVHPRP | -0.289
144 | RRIRCRPPRLPRPRPRPKRSPRP | 0.235
145 | RRIRERPPRLPRPRPRPPMQPRP | 0.225
146 | RRIRLRPPRLPRPRPRPFWYPRP | -0.0126
147 | RRIRTRPPRLPRPRPRPNVGPRP | 0.202
148 | RRIRMRPPRLPRPRPRPLRFPRP | 0.74
149 | RRIRFRPPRLPRPRPRPYCAPRP | -0.517
150 | RRIRPRPPRLPRPRPRPGWWPRP | 0.356
